Experimental data published in doi:10.1101/2022.05.11.491581 (bioRxiv, 2022).
Each block holds one molecule with its values, some of them ahead of it.

Experiments:
[1] = molecular target: LARGE1 without its CC domain (-CC), soluble secreted form (human) (UniProt O95461); assay: mass photometry
[2] = molecular target: LARGE1 without its CC domain (-CC), soluble secreted form (human) (UniProt O95461); assay: cryo-EM structure
[3] = molecular target: LARGE1 without its CC domain (-CC), soluble secreted form (human) (UniProt O95461); assay: crystal structure
mass photometry = molecular target: the molecule itself; assay: mass photometry

stoichiometry N [1]: 2
stoichiometry N [2]: 2
stoichiometry N [3]: 2
Molecule: LARGE1 without its CC domain (-CC), soluble secreted form (from UniProt O95461 96-276) (domain or fragment)

B1: LARGE1 with its coiled-coil (+CC) domain (residues 29-756), soluble secreted form (domain or fragment, human, UniProt O95461 29-756, looked up)
chain: LFSGSFEDGKPVSLSPLESQAHSPRYTASSQRERESLEVRMREVEEENRALRRQLSLAQGRAPSHRRGNHSKTYSMEEGTGDSENLRAGIVAGNSSECGQQPVVEKCETIHVAIVCAGYNASRDVVTLVKSVLFHRRNPLHFHLIADSIAEQILATLFQTWMVPAVRVDFYNADELKSEVSWIPNKHYSGIYGLMKLVLTKTLPANLERVIVLDTDITFATDIAELWAVFHKFKGQQVLGLVENQSDWYLGNLWKNHRPWPALGRGYNTGVILLLLDKLRKMKWEQMWRLTAERELMGMLSTSLADQDIFNAVIKQNPFLVYQLPCFWNVQLSDHTRSEQCYRDVSDLKVIHWNSPKKLRVKNKHVEFFRNLYLTFLEYDGNLLRRELFGCPSEADVNSENLQKQLSELDEDDLCYEFRRERFTVHRTHLYFLHYEYEPAADSTDVTLVAQLSMDRLQMLEAICKHWEGPISLALYLSDAEAQQFLRYAQGSEVLMSRHNVGYHIVYKEGQFYPVNLLRNVAMKHISTPYMFLSDIDFLPMYGLYEYLRKSVIQLDLANTKKAMIVPAFETLRYRLSFPKSKAELLSMLDMGTLFTFRYHVWTKGHAPTNFAKWRTATTPYRVEWEADFEPYVVVRRDCPEYDRRFVGFGWNKVAHIMELDVQEYEFIVLPNAYMIHMPHAPSFDITKFRSNKQYRICLKTLKEEFQQDMSRRYGFAALKYLTAENNS
stoichiometry N (mass photometry): 2
